# According to the DeepSol protein solubility set:
# Assay: soluble on expression in E. coli; label from the status in PepcDB or PDB records
row,Sequence,soluble on expression in E. coli
1,MGSDKIHHHHHHMVSIRKSLLQFVFAGSYMKRWNDKLRPVELLEVDKQAHKMIVAWLLYQQNSDDLDDTSRLRLGSDIIEGGIFDYFYRLVITDIKPPVFYRIKDNAQHYAQLSAWVLDELEPLVQPLGEDFWGRMRGWVQRPEKNSRADRILDAAHLFASNWEFRLIESLNRFDDEIEDIGASFDAKLAGFDDLKGMDSLRHATGAVGRFAALCGQLRFQKRWSQTPRIPETSVLGHMFLVACYSYFFSLAVNACGARRQNNFFIGLFHDLPELLTRDIISPVKKSVEELDAVIKEYEEAELRRKVLNPLEEEGFGGIAARLSYYLGLEVGSEFTEAVVDNGNVLAVDFELLQSRYNHDRFDPRDGRMLKTCDTLAAFIEAYTAVRNGISSDQLQAALWRLRDKNRRTVIGPVHVGALFADFD,not soluble
2,MFYPDPFDVIIIGGGHAGTEAAMAAARMGQQTLLLTHNIDTLGQMSCNPAIGGIGKGHLVKEVDALGGLMAKAIDQAGIQFRILNASKGPAVRATRAQADRVRYRQAVRTALENQPNLMIFQQAVEDLIVENDRVVGAVTQMGLKFRAKAVVLTVGTFLDGKIHIGLDNYSGGRAGDPPSIPLSRRLRELPLRVGRLKTGTPPRIDARTIDFSVLAQQHGDNPMPVFSFMGNASLHPQQVPCYITHTNEKTHDVIRSNLDRSPMYAGVIEGVGPRYCPSIEDKVMRFADRNQHQIFLEPEGLTSNEIYPNGISTSLPFDVQMQIVRSMQGMENAKIVRPGYAIEYDFFDPRDLKPTLESKFIQGLFFAGQINGTTGYEEAAAQGLLAGLNAARLSADKEGWAPARSQAYLGVLVDDLCTLGTKEPYRMFTSRAEYRLMLREDNADLRLTEIGRELGLVDDERWARFNEKLENIERERQRLKSTWVTPSAEAAAEVNAHLTAPLSREASGEDLLRRPEMTYEKLTTLTPFAPALTDEQAAEQVEIQVKYEGYIARQQDEIEKQLRNENTLLPATLDYRQISGLSNEVIAKLNDHKPASIGQASRISGVTPAAISILLVWLKKQGMLRRSA,not soluble
3,MTVQQSGRRERKKAATRQKIADTALRLFLERGYDAVGIRDVAAEADVAVTTLFSHFASKEALVFEQDEDFEHRLTRAVTDRAPHEPLIPALRREILALVRHCTADSAAPIWRMIDASPALRKYDESVRLRHAEALATAIAADPTRTRSETAARTLARFVIDAYSLSREAPDPEAALDEIFPMIEAAWAAARPPHPT,not soluble
4,MFSTVFVAGYGNSTEGHWQNSWCKITKNSYWVEQEDWNNPNCVDWIESLNALVQSIDGPILLVSHSLGGSTIVEWSKKYSANIIGAFMVAVPDVQCEHFPKEISGYQLPPLEKLPFPSMLLASTNDPYSTLDRSKYFVDIWGSDLTIVGDLKHVNADSNIGEWSYGLNLLNKFITSIDS,not soluble
5,MAHHHHHHMKELVSSFLNNLSQVSSELSCCKNKKFHVDNVSLCGIEDVLHNRDRSSLIDKEKINTLMELYKNENIYESYEEYDIDKYEKIKNNNILKNMGGNKLNVCNACLFCNNNNSQNHMNKNKNVSENINNVIDLDDEILIANFPFNSLRDVENLTYTNSEHTLNNKEYSYIKNSIDLDFDQQIKNQKKNNNSKNSSHLYNEIVKEGEYDNDDSPNFDEDSSQFKFSVLNNIKNNIHNTKDELTNNYNIIKNTLNQDYEKNIDQKEKHDIIVDNMVNSVDYQNDMDTNIKTKKKKKNQAYSNFYAKSDLPSSNIDEGSCKGCKASDTSSEFFSVASGMKPNN,not soluble
6,MHSLYLGVVKVMAKIILVYANCVNSTAKGDFALAGQIAKDLVREKTSDDIDVVLTSTLDGIARFESLYGKAVDGRVIIEGTSVGLCALELFESVDNEVVAFIEANRCKYAPSDILKRVLSPDSKFLFIGAANQKAIATGDKFTKSWLYISHKGDQPNVYEHFDEDDSLIQSVGLGDDRLGLPSLPKVDELPEMNSTQSQKIPSGEYGFMYLAAVHGIDDVYLMNQYMSLTEMGQYVLVGEYAKQSKEVQMVLHSLQYKGSSVSLTMPQIFFHDSVDNCLMRNMVSKSSGPLVVSTGVMSSIEAMQDGKLTYYQTMSNNTQFVASYLIAVKSICSSDTTLFGSMPKLIIDLSNLLFAEKPLKESQMKEIKSLLGMSSVTSRLGEMNKRIIAKANGTVAGELLSFIGKPKTTQSHKQCISVCMSLRKSGETTSPIFDQALRRAAAWGRLFELKVLIASMSTSDLNKKDKTGNQYTALHWAVMQGHLDCARLLVKSGASVDIQDKSGKSPLHYAIKRGDKETIKLLVQAGASLEIMDDSGAKPCDGSESWVPEYIKSCYEKSGHKSSSLF,not soluble
7,MGSDKIHHHHHHMFQSDLKLIVFQHGFFGERFVANLMNYPNSCPSYGACGIDGCTQCKEGLYNFSKNIIAVFSMPDPTTMPDFIENAEDFLPKVIPEADIAVAINLHPDVLAVMPEKLKGKVKALIVPVEEPRWCSPGLAKQIREKCDELGLEFAAPKPFCNLRPSEEHPTINRMIEEMRIGYPEFEIELLEDGKAYVRISRSQPCGCAYYIGVKLRGFDFSEVKEGKMRELWNVVAEAHHSYPCTASMERDNEYNETLLHVGGYIARHAVNRALGYEGDEDIPEHIKHIVL,not soluble
8,MAKDVKPTRKNLMQIEDRIELSERGHDTLEKKRDGLIMEFMDILDQAQDVREDLDGSYERAQRAINMARAMEGDVAVRGAAAALKEHPELTTQSKNIMGVVVPQIESSKVRKSLDERGYGVMGTSARIDEAAEAYEELLENIILAAEVETAMKKMLEEIETTKRRVNALEFKLLPDLYDNQEYIEQKLEEQEREEIFRMKKIKAKKEEEEDALAAEEEAEEEPEAVTADDAAALEHHHHHH,soluble
9,MGSDKIHHHHHHMTQPFKDAISICKTILRNGYDAYVVNMRLQSELMAEDKRMEIDLACECDFDEIARLFPNATRSDEEGVLAMLEEGGVAHRFYLTDTEESSYPDRTLMRITPHMVARLQALGKAHSSLTLPYGAAAPHDSDDFESFDKGIIRLRGLPDETLRRNYLLAVRAIRYAANLDMEIDPVTWIAIVRSAGRVLDYVPVSDIVAEWQMVEAETMWKFVRLLFDAQLLHGLLPEVAALARVRQSRNDSGDTETVLDHTIECMRHYPEEGFHHDWYGTLAMLFHDVGKLFTADFHDGQWTFYQHHRVGAKVTRRLLHRLHLPAQEVDLICHLVRHHMRFHFMLTDKGIRRFAALDEYPRLMEMARADIKARDGSYTYFNHNQKYLERAATPEQMLEPLLNGNEIMQHTGLHPGPQVGLIRDALLNAQVTGAVADVNDAVAFIKEYKRQYFS,not soluble
10,MGSDKIHHHHHHVSLLGEERKSQIMQWLEEEGKVMTKDLIDRLDVSGETVRRYLEELERERQLKRVYGGAIYQGGKQESPISRRTDQLSRRLARYAKGWLADYSCIFLGKGEPVEHLLPYLSGSATIVTNSLSIASHLEQCRETGPFHGEIRLLGGTVDSYGQTVGVEVLQALDAYAFDASFLTFDGAEIERGFVSDDIESSLIQKAIIGRTKDVYAFLACDEFEGNRKYKVAEFRRAKIVLSPSTYPPSWEMKLFNERVNWTVVS,not soluble
11,MKKFCLSYSSGKDCLLAMDRLVQAGNQPVALVTTLSDEINRSWFHGIPISVLEAAAEALDLPLVISHNNETNYTEKVVEALQETKKLGAETVCFGDIDIEQNGAWDRQVALSAGLEPQLPLWQENREALVKEFLAKGYTAIIKTVSKEAGIPIKFLGEPLNETFITYLKEHQLDICGENGEYHTLVIDGPLFKKRLNYYTSGIYESPYAYSLIIDA,not soluble
12,MSSNTTEHGEHFNESIVNEVILEDMKKNRIDHMKYLPGMETMEESDVMEQVITAMNAYDYDKYTEKDVRRALEHDNRTVEDFQALLSPAALPLLEEIAQAARVETRKHFGNSVYMFTPIYIANYCENYCIYCGFNCHNKIRRAQLNAEEIDKEMAAIAKTGLQEILILTGESRIKSDVKYIGEACKIARKYFKVIGLEVYPMNSDEYHYLHECGADYVTVFQETYNSDKYETLHLAGHKRIFPYRLNAQERALKGGMRGVGFAALLGLDDFRKDAFATGYHAWLLQRKYPHAEIAFSCPRLRPIINNDRINPMDVHEPQLLQVVCAYRLFMPFASITVSTRECERVRDNLVNIAATKISAGVSTGIGSHVEDIEDKGDDQFEISDGRSVDEVYQALLNHDLQPVMNDYVYL,not soluble
13,MELYETSPYFYQEPRFYDGENYLPVHLQGFEPPGYERTELTLSPEAPGPLEDKGLGTPEHCPGQCLPWACKVCKRKSVSVDRRRAATLREKRRLKKVNEAFEALKRSTLLNPNQRLPKVEILRSAIQYIERLQALLSSLNQEERDLRYRGGGGPQPGVPSECSSHSASCSPEWGSALEFSANPGDHLLTADPTDAHNLHSLTSIVDSITVEDVSVAFPDETMPN,soluble
14,MTLTPEASKSVAQPPTQAPLTQEEAIASLGRYGYGWADSDVAGANAQRGLSEAVVRDISAKKNEPDWMLQSRLKALRIFDRKPIPKWGSNLDGIDFDNIKYFVRSTEKQAASWDDLPEDIRNTYDRLGIPEAEKQRLVAGVAAQYESEVVYHQIREDLEAQGVIFLDTDTGLREHPDIFKEYFGTVIPAGDNKFSALNTAVWSGGSFIYVPPGVHVDIPLQAYFRINTENMGQFERTLIIADEGSYVHYVEGCLPAGELITTADGDLRPIESIRVGDFVTGHDGRPHRVTAVQVRDLDGELFTFTPMSPANAFSVTAEHPLLAIPRDEVRVMRKERNGWKAEVNSTKLRSAEPRWIAAKDVAEGDFLIYPKPKPIPHRTVLPLEFARLAGYYLAEGHACLTNGCESLIFSFHSDEFEYVEDVRQACKSLYEKSGSVLIEEHKHSARVTVYTKAGYAAMRDNVGIGSSNKKLSDLLMRQDETFLRELVDAYVNGDGNVTRRNGAVWKRVHTTSRLWAFQLQSILARLGHYATVELRRPGGPGVIMGRNVVRKDIYQVQWTEGGRGPKQARDCGDYFAVPIKKRAVREAHEPVYNLDVENPDSYLAYGFAVHNCTAPIYKSDSLHSAVVEIIVKPHARVRYTTIQNWSNNVYNLVTKRARAEAGATMEWIDGNIGSKVTMKYPAVWMTGEHAKGEVLSVAFAGEDQHQDTGAKMLHLAPNTSSNIVSKSVARGGGRTSYRGLVQVNKGAHGSRSSVKCDALLVDTVSRSDTYPYVDIREDDVTMGHEATVSKVSENQLFYLMSRGLTEDEAMAMVVRGFVEPIAKELPMEYALELNRLIELQMEGAVG,not soluble
15,MIQFSINRTLFIHALNTTKRAISTKNAIPILSSIKIEVTSTGVTLTGSNGQISIENTIPVSNENAGLLITSPGAILLEASFFINIISSLPDISINVKEIEQHQVVLTSGKSEITLKGKDVDQYPRLQEVSTENPLILKTKLLKSIIAETAFAASLQESRPILTGVHIVLSNHKDFKAVATDSHRMSQRLITLDNTSADFMVVLPSKSLREFSAVFTDDIETVEVFFSPSQILFRSEHISFYTRLLEGNYPDTDRLLMTEFETEVVFNTQSLRHAMERAFLISNATQNGTVKLEITQNHISAHVNSPEVGKVNEDLDIVSQSGSDLTISFNPTYLIESLKAIKSETVKIHFLSPVRPFTLTPGDEEESFIQLITPVRTN,soluble
16,MFVGPSPPHTPLVNRRNINNHRPRNATVTSALPDIFLAAVSLLFLWSSPKPLVSLPPNRFSFPLNPRRRSITAMSRRSPPPPPPTQRFANPQSLSDWLESRLPSDSFAAWGVKPGTKNVHNLWLELSDGETSLADSTPPVRTVNVVTVRVIGKNGRILVEAHQELSDGSIRERFRPLSEKMKPEESPDEAVFRAIKEELGSIFNGDGDNIGQRIKILPGTYNRRVEERNSLSYPGLPARYALHSVNATVEGLPEQDFCTEEKEYEGGDSTKDSVETLAAGNAVTVKRHYWKWVSPDSIRS,not soluble
17,MSNFEKKYILELNDALSHLNHNSTSFDLLKVLISWLSNDIVIDKFKILGYDFSKYIEMNPDDYPVEKSILNREEIIYLKNNIYRKISSGNFKFQYFVQYIRDILEYLFIEHIERVCPYCEWGEMQKLEEQNTHETVYLCTQCGCAFYNDNSQFLLKTPLTIPMKRDEFK,not soluble
18,SDSDSGEQSEGELSPGHESFNSKSLALQAQKKILSKMATMAVANLLTDDTSSEILDELYKASREYTKSKKEAHKIIKDVIKIALKIGILYRNHQFSPEEMETVERFKKKMNQAAMTVVSFYEVEYTFDRGILSELLLECRDLLHELVEHHLTMRSHGRIDHVFNHFADVDFLTELYGPSEDYRLNLRKICDGINKLLDEGTL,soluble
